Here are results for eight molecules from patent US20250355001A1 (GTINVENT, published 2025).

Like-named read-outs stand apart in the source and are kept apart here.

A word on the EC50 (read off the curve): it is the concentration giving half of the maximal effect. A high value points to a need for much substance. For orientation: Kd means the concentration at which binding is half-saturated. What is called koff is the rate constant with which the complex falls apart. Read a high koff as a short-lived complex. For orientation: kon means the rate constant with which the complex forms. Lower therefore signals slow association.

One assay concerns the target tau fragment 1-155 (human, UniProt P10636 1-472). Briefly: direct ELISA. As to the method:
(§1) A series of binding ELISA was performed using various truncated versions of the tau protein and 13mer peptide libraries spanning the entire hT40 molecule for mapping the epitopes of anti-tau scAbs (Full list of protein antigens used is given in Table 14). In general, ELISA plates were coated with 1 μg/ml hT40 or dGA or dGAE or other truncated versions of the protein and in the case of biotinylated peptides, plates were coated with 5 μg/ml Streptavidin followed by 1 μg/ml biotinylated peptide. The plates were blocked with 2% MPBS and scAb samples added at desired starting concentrations and double diluted across the plate. Binding was detected using anti-Human C Kappa HRP conjugated secondary antibody and the resulting immunoreaction was developed and absorbance values measured as described above.

Assay [1] concerns the target T1, full length human tau protein 2N4R (hT40) (human, UniProt P10636 1-758).
T1 construct: recombinant; also called T441
Briefly: SPR, scAb captured, tau analyte. On the procedure:
(§2) The capture antibody was diluted 1/100 in 10 mM Sodium acetate buffer pH 5.0 and passed over the activated chip surface for a period of at least 420 s. Final ligand immobilisation levels over 12,000 RU were deemed to be satisfactory.
(§3) The scAb to be tested was added only to flow cell 2 so that flow cell 1 could act as a control to subtract any interaction with the analyte and the chip surface. […] The multi-cycle protocol was as follows-Three start-up cycles composed of an initial capture, to the desired level, of the scAb to be tested was performed followed by a 30 s injection of glycine buffer pH 2.0 after each cycle to regenerate the chip surface. […] The target was added for a 120 s association period and 420 s dissociation period followed by another regeneration, 30 s injection of glycine buffer pH 2.0 in between each cycle.
(§4) The single cycle kinetics protocol was similar and utilised the same level of scAb capture. […] In single cycle kinetics the regeneration step was performed only after the final analyte concentration was added. Binding responses were analysed in Biacore X100 evaluation software and data fitted to a 1:1 binding model to obtain kinetic and affinity characterisation.
Target sequence in this assay (P10636 other isoform, or with tags, fused parts or gaps limits assumed): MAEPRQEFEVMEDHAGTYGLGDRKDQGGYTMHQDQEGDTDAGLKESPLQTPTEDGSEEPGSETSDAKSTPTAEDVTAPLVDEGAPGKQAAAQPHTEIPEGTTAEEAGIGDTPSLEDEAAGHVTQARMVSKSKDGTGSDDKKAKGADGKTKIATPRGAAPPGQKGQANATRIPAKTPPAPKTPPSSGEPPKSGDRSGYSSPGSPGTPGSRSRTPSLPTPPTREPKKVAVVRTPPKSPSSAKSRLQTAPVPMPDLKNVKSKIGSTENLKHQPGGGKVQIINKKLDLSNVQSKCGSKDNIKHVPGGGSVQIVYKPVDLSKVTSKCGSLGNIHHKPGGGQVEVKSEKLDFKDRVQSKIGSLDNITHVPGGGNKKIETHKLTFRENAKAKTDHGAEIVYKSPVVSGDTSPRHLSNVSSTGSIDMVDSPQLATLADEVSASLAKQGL

The target of assay [2] is T1, full length human tau protein 2N4R …. Briefly: hT40 ELISA. A general note: ELISA stands for enzyme-linked immunosorbent assay.
Target sequence in this assay (P10636 other isoform, or with tags, fused parts or gaps limits assumed): as above
The target of assay [3] is T2, biotinylated tau peptide 412-441 (N-terminal biotin).
T2 peptide: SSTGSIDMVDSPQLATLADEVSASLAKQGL
Briefly: ELISA on biotinylated 412-441 peptide. As to the method:
as §1

For assay [4], the target named is T1, full length human tau protein 2N4R …. Briefly: hT40 ELISA. On the procedure: as §1
This is another data set of the same source.

The target is the same in assay [5]. Briefly: SPR, summary table. As to the method: as §2, §3, §4
Target sequence in this assay (P10636 other isoform, or with tags, fused parts or gaps limits assumed): as the sequence (P10636 other isoform, or with tags, fused parts or gaps limits assumed) above
The target is the same in assay [6]. Briefly: hT40 ELISA. The source holds these as a separate data set.
Target sequence in this assay (P10636 other isoform, or with tags, fused parts or gaps limits assumed): as the sequence (P10636 other isoform, or with tags, fused parts or gaps limits assumed) above
The target is the same in assay [7]. Briefly: Biacore. As to the method:
as §2, §3, §4
Target sequence in this assay (P10636 other isoform, or with tags, fused parts or gaps limits assumed): as the sequence (P10636 other isoform, or with tags, fused parts or gaps limits assumed) above

For assay [8] the target is unchanged. Briefly: sandwich ELISA, S1D12 mAb capture, scAb detection. On the procedure:
Full length tau (hT40), at 1 μg/ml starting concentration was added to designated wells and double diluted across rest of the plates and left to incubate at R/T for 1 h. A series of detection scAbs with varying epitope recognition properties were added at 10 μg/ml to designated wells (FIG. 22). For colourimetric detection HRP conjugated anti-HuCk secondary antibody was used and the resulting immunoreaction was developed and absorbance at 450 nm measured as described previously. Cut-off point for a positive binding event was an absorbance value of 0.3 following background subtraction. In order to enhance the assay sensitivity, a chemiluminescent detection method was adopted where 50 μL SuperSignal ELISA Femto Substrate (Thermo Scientific) was added to each well following incubation with anti-HuCK HRP antibody and subsequent washing. The luminescence was read using Clariostar Plus microplate reader. A further modification to this protocol was done where various detection scAbs were directly conjugated with HRP and detected using chemiluminescent protocol as before.
Target sequence in this assay (P10636 other isoform, or with tags, fused parts or gaps limits assumed): as the sequence (P10636 other isoform, or with tags, fused parts or gaps limits assumed) above

Assay [9] shares this target. Briefly: direct ELISA. As to the method: as §1
The target in assay [10] is T3, dGA (tau 297-390) (human, UniProt P10636 614-707). Briefly: direct ELISA. On the procedure: as §1
Target sequence in this assay (P10636 614-707 limits assumed): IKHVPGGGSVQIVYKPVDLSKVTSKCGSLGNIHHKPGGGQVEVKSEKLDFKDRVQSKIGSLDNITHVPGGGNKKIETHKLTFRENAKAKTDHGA
Assay [11] addresses T4, dGAE (tau 297-391) (human, UniProt P10636 614-708).
T4 construct: monomer; also called dGAE95
Briefly: SPR, scAb captured, tau analyte. On the procedure:
as §2, §3, §4
Target sequence in this assay (P10636 614-708 limits assumed): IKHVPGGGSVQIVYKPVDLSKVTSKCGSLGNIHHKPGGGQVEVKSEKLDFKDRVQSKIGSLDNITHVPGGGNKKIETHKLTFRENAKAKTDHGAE
Background: In SPR one partner is held on a chip, and binding of the other changes the refractive index at the surface.

For assay [12], the target named is T5, aggregated dGAE (human, UniProt P10636 614-708, limits assumed).
T5 construct: dGAE aggregated in vitro with DTT, 700 rpm, 37 C, 24 h; also called dGAE aggregates; dGAE agg
Briefly: ELISA, direct immobilisation, SDS + Triton treated dGAE aggregates.
Target sequence in this assay (P10636 614-708 limits assumed): as above

Assay [13] concerns the target T1, full length human tau protein 2N4R …. Briefly: hT40 ELISA. The source holds these as a separate data set.
Assay [14] has as its target T5, aggregated dGAE. Briefly: sandwich ELISA, S1D12 mAb capture, SDS + Triton treated dGAE aggregates. On the procedure: For aggregation, 1000 μL 100 μM dGAE+10 μL 10 mM DTT was added to a ‘LoBind’ microfuge tubes and agitated at 700 RPM/37° C. for 24 hours. Resulting sample centrifuged at 17,000×g/4° C. for 60 min and supernatant discarded to remove left over monomer. Pellet resuspended in half the original volume for future experiments and hereafter referred to as ‘aggregates’. 1 μl of aggregates was added to 1 ml of PBS and SDS was added to a final concentration of 1% (w/v). This was left to incubate on lab bench for 1 h with gentle agitation every 15 minutes. In order to neutralize the SDS effect on ELISA, Triton X-100 added to a final concentration of 3% (v/v) and mixed gently by pipetting to prevent any bubble formation. […] Similarly aggregates treated with only SDS or Triton X-100, untreated aggregates, dGAE monomers treated with only SDS or SDS+Titon X-100 were also added to designated wells as controls. All samples were then double diluted across the plate in final volumes of 100 μl. The final column was left with no protein to act as a blank.
Target sequence in this assay (P10636 614-708 limits assumed): as above

Assay [15] deals with T4, dGAE (tau 297-391). Briefly: direct ELISA.
Assay [16] addresses T3, dGA (tau 297-390). Briefly: ELISA. As to the method: as §1
For assay [17], the target named is T5, aggregated dGAE. Briefly: capture ELISA, mAb coated at 1 µg/ml, aggregates titrated, S1G2 scAb detection.

B1: 3bF4 scAb (scFv, not shown: small tags and cut ends)
scFv: QVQLQESGPSLVKPSQTLSLTCTVSGFSLSSNGVGWVRQAPGKVPEWLGDISSVGKKYANPALKSRLSFTRDTSKSQVSLSLSSVTTEDTAVYYCVKCRDGGVTYGYDIDYWGPGLLVTVSSEGKSSGASGESKVDDQAVLTQPSSVSKSTGQTVSITCSGSSSNVGLRNYVTWFQQVPGSAPKLLIYGATSRASGIPDRFSGSRSGNTATLIISSLQAEDEADYYCASADTNDGGVFGSGTRLTVLG
notes: scAb
On to B1, for which the “EC50 (read off the curve)” value with tau fragment 1-155 was roughly 1 µg/mL. In [1], this molecule yielded an equilibrium dissociation constant (Kd) of 140 nM, a koff of 0.0153 s⁻¹ and a kon of 109000 M⁻¹ s⁻¹.

B2: S1D9 scAb (scFv, not shown: small tags and cut ends)
scFv: QVQLQESGPSLVKPSQTLSLTCTVSGFSLTSNSVGWVRQAPGKAPEWVAGIDSDGEEGYNPALNSRLSITRDTSKNQVSLSLSRVTSEDTAVYYCGRTYRTDGYAYGYVQAIDYWGPGLLVTVSSEGKSSGASGESKVDDRVMLTQPPSVSGSPGQTVSITCSGSFIGISSVGWFQQLPGSGLRTVIFASDGRPSGVPDRFSNSKSGNTATLTISSLQAEDEADYFCGSSDRTQYTGVFGSGTRLTVLS
notes: scAb
Turning to B2, the “EC50 (read off the curve)” value in assay [2] is roughly 1 µg/mL.

B3: 412E10 scAb (scFv, not shown: small tags and cut ends)
scFv: QVQLQESGPSLVKPSQTLSLTCTVSGFSVISDSVAWVRQAPGKVPEWLGASGSSGNKYYNPALKSRLSITRDTSKSQVSLSLSSVTTEDTAVYYCARGIIAGVDVWGRGLLVTVSSEGKSSGASGESKVDDQAVLTQPSSVSGSLGQRVSITCSGSSSNVGYGNYVGWYQQVPGSAPKLLIYGTAIRASGVPDRFSGSRSGDTATLTITSLQAEDEADYYCASYQSNYAFFGSGTRLTVLG
notes: scAb
Take B3: the equilibrium dissociation constant (Kd) was 3.16 nM in [1], 3.16 nM in assay [5] and 3.3 nM in [7]. Also, the koff in assay [1] worked out at 0.00085 s⁻¹. The molecule further gave a kon in assay [1] of 271000 M⁻¹ s⁻¹. The concentration for a half-maximal effect (EC50 (read off the curve)) in [3] was roughly 0.4 µg/mL; in [4] it was roughly 1 µg/mL; in assay [6], roughly 1 µg/mL. This molecule also showed a LoD chemiluminescence detection in [8] of 0.37 ng/mL. Also, the LoD colourimetric detection in [8] worked out at 20 ng/mL.

B4: 3aB7 scAb (scFv, not shown: small tags and cut ends)
scFv: QVQLQESGPSLVKPSQTLSLTCTVSGFSLTSNGVGWVRQAPGKVPEWVGDKSSAGKTYGNPALKSRLSITRDTSKSQVSLSLSSVTTEDTAVYYCVRCRDGGVTYGYDVDYWGPGLLVTVSSEGKSSGASGESKVDDQAVLTQPSSVSKSLGQSVSITCSGSSSNVGYGDVVSWFQQFPGSAPKLLIFGTTTRASGVPDRFSGSRSGNAATLTINSLQAEDEADYYCASFDSDSGGIAGSGTRLTVLG
notes: scAb
For the molecule B4, the “EC50 (read off the curve)” value with tau fragment 1-155 was roughly 0.8 µg/mL. For the same molecule, in [1], the Kd worked out at 69 nM, the off-rate constant (koff) is 0.0143 s⁻¹ and the association rate constant (kon) was determined as 207000 M⁻¹ s⁻¹.

B5: E1E8 scAb (scFv, not shown: small tags and cut ends)
scFv: QVQLQESGPSLVKPSQTLSLTCTVSGFSLTDWGVAWVRQAPGKALEWLGTMRSGGTTDDNPALKSRLSITRDTSKSQVSLSLSSVTTEDMAMYYCARGYLSGVHYAWGRGLLVTVSSEGKSSGASGESKVDDQAVLTQPSSVSGSLGQSVSITCSGSSSNVGDGRYVSWFQQVPGSAPKLLIYDTTSRASGVPDRFSGSRSGNTATLIITSLQAEDEADYYCASIDSGNNLLFGSGTRLTVLG
notes: scAb
Regarding B5, the binding result in assay [9] is reported as “no binding (tested: 25 ug/ml)”. For the same molecule, in the assay with dGA (tau 297-390) [10], the binding result is recorded as “no binding (tested: 25 ug/ml)”. In the assay with dGAE (tau 297-391) [11], this molecule returned a Kd of 6.3 nM, a koff of 0.0014 s⁻¹ and a kon of 154000 M⁻¹ s⁻¹.

B6: CA12 scAb (scFv, not shown: small tags and cut ends)
scFv: QVQLQGSGPSLVKPSQTLSLTCTVSGFSFDSYYVGWVRQAPGKALEWLGNIYSTGRAFYNPALKSRLSITRDTSKSQVSLSVSSVTIEDTALYYCVRGSYYHGGGNGMVDFFDYWSPGLLVTVSSEGKSSGASGESKVDDQVVRTQPSSVSGSLGQRVSITCSGSSSNVGYGNYVGWFQQVPGSAPKLLIYAATSRASGVPDRFSGSRSGNTATLTIDSLQAEDEADYYCSSYQRGNTGVFGSGTRLTVLG
notes: scAb
As for B6, the LoD was determined as 16 ng/mL in the assay with aggregated dGAE [12] and 2 ng/mL in the assay with aggregated dGAE [14]. In addition, in assay [13], the concentration giving a half-maximal response (EC50 (read off the curve)) is roughly 0.02 µg/mL.

B7: S1B1 scAb (scFv, not shown: small tags and cut ends)
scFv: QVQLQESGPSLVKPSQTLSLTCTVSGFSLSSNSVGWVRQAPGKAPEWVAGIDTDGEEGYNPALNSRLSITRDTSKSQVSLSLSSVTSEDTAVYYCVRSYRTDGLAYGYVQAIDYWGPGLLVTVSSEGKSSGASGESKVDDQAVLTQPSSVSGSLGQRVSITCSGSFIGISSVGWFQQLPGSGLRTVIVASDGRPSGVPDRFSNSKSGNTATLTISSLQAEDEADYFCGSSDRTQYTGVFGSGTRLTVLG
notes: scAb
B7: the binding result (with dGAE (tau 297-391) [15]; in assay [2]; in the assay with dGA (tau 297-390) [16]) was “binds” in each case.

B8: E2E8 mAb (antibody, mouse IgG2a, V domains shown)
VH: QVQLQESGPSLVKPSQTLSLTCTVSGFSLTDRGVAWVRQAPGKALEWVGTMRSGGTIDYNPALKSRLSITRDTSKSQVFLSLSSVTTEDMAMYYCARGYLSGDRYAWGRGLLVTVSS
VL: QAVLTQPSSVSKSLGQSVSIACSGSRSDIGYGNYVSWFQQIPGSAPKLLIYDTNTRASGVPDRFSGARSGNTATLTINSLQAEDEADYYCANIDSSRSHLFGSGTRLTVLG
notes: sheep-mouse IgG2a chimeric mAb
With B8, the “EC50 (read off the curve)” value in the assay with aggregated dGAE [17] is roughly 80 nM.
